From article PMC5750076

Biological target: mTOR^ΔN-mLST8 complex (human) (UniProt P42345)

S6K1^367–404 wild type (from UniProt P23443-2 367-404) (peptide)
KM of S6K1^367–404 phosphorylation by mTOR^ΔN-mLST8: 430 µM
